Data from paper PMC10825186, “A universal metabolite repair enzyme removes a strong inhibitor of the TCA cycle” (Nature Communications, 2024).

B1: Bt FAHD2A (Bos taurus) (protein)
chain: ATQLPVLPRSEVTFLAPVTRPDKVVCVGMNYADHCREQNVPVPKEPIIFSKFASAIVGPYDNIILPPESQEVDWEVELAVVIGKRGKYIKATDAMAHVAGFTVAHDVSARDWQMGRNGKQWLLGKTFDTFCPLGPALVTKDSVADPHNLKICCRVNGEVMQSSNTNQMVFKTEELITWVSQFVTLYPGDIILTGTPPGVGVFRKPPVFLKKGDEVQCEIEELGVIINKVV
B2: Hs FAHD1 (Homo sapiens) (protein)
chain: MGIMAASRPLSRFWEWGKNIVCVGRNYADHVREMRSAVLSEPVLFLKPSTAYAPEGSPILMPAYTRNLHHELELGVVMGKRCRAVPEAAAMDYVGGYALCLDMTARDVQDECKKKGLPWTLAKSFTASCPVSAFVPKEKIPDPHKLKLWLKVNGELRQEGETSSMIFSIPYIISYVSKIITLEEGDIILTGTPKGVGPVKENDEIEAGIHGLVSMTFKVEKPEY
B3: Sc FMP41 (Saccharomyces cerevisiae S288C) (protein)
chain: MSYNYLKAARKIICIGRNYAAHIKELNNSTPKQPFFFLKPTSSIVTPLSSSLVKTTRPANSTFNGLNEDGTNPGPIFIPRGVKVHHEIELALIVSKHLSNVTKMKPEEVYDSISGVALALDLTARNVQDEAKKKGLPWTISKGFDTFMPISAIVSREKFSSYKSNLQDIFRVKCSVNGQLRQDGGTNLMLHPLHKILQHISTMISLEPGDIILTGTPAGVGELKPGDRVHCELLQNNDNIVDMNFECENRPGPYEFRET
B4: Bs YisK (Bacillus subtilis subsp. subtilis str. 168) (protein)
chain: MKFATGELYNRMFVGLIIDDEKIMDLQKAEKKLFELETIPGSLIECIAEGDKFVAHARQLAEWAKKPNDELGSFMYSLSEVKLHAPIPKPSKNIICIGKNYRDHAIEMGSEADIPEHPMVFTKSPVTVTGHGDIVKSHEEVTSQLDYEGELAVVIGKSGTRISKEDAYDHVFGYTIVNDITARDLQKRHKQFFIGKSLDTTCPMGPVLVHKSSIQEPERLKVETRVNGELRQSGSASDMIFSIPELIETLSKGMTLEAGDIIATGTPSGVGKGFTPPKFLRSGDKIDITIDPIGTLSNQIG
B5: Hs FAHD2A (Homo sapiens) (protein)
chain: AAQLPVLPRSEVTFLAPVTRPDKVVCVGMNYVDHCKEQNVPVPKEPIIFSKFASSIVGPYDEVVLPPQSQEVDWEVELAVVIGKKGKHIKATDAMAHVAGFTVAHDVSARDWQMRRNGKQWLLGKTFDTFCPLGPALVTKDSVADPHNLKICCRVNGEVVQSGNTNQMVFKTEDLIAWVSQFVTFYPGDVILTGTPPGVGVFRKPPVFLKKGDEVQCEIEELGVIINKVV
B6: Hs FAHD2B (Homo sapiens) (protein)
chain: AAQLPVLPWSEVTFLAPVTWPDKVVCVGMNYVDHCKEQNVPVPKEPIIFSKFASSIVGPYDEVVLPPQSQEVDWEVELAVVIGKKGKHIKATDAMAHVAGFTVAHDVSARDWLTRRNGKQWLLGKTFDTFCPLGPALVTKDSVADPHNLKICCRVNGEVVQSSNTNQMVFKTEDLIAWVSQFVTFYPGDVILTGTPPGVGVFRKPPVFLKKGDEVQCEIEELGVIINKVV
B7: Ec YcgM (Escherichia coli K-12) (protein)
chain: MYQHHNWQGALLDYPVSKVVCVGSNYAKHIKEMGSAVPEEPVLFIKPETALCDLRQPLAIPSDFGSVHHEVELAVLIGATLRQATEEHVRKAIAGYGVALDLTLRDVQGKMKKAGQPWEKAKAFDNSCPLSGFIPAAEFTGDPQNTTLSLSVNGEQRQQGTTADMIHKIVPLIAYMSKFFTLKAGDVVLTGTPDGVGPLQSGDELTVTFDGHSLTTRVL

substrate: O=C(O)C=C(O)C(=O)O; experiment: purified protein; details: pH 7.5, 22 °C, 10 mM potassium phosphate, 0.3 mM NADH, malate dehydrogenase, OAA added in dry acetone

In order of rising Km:
1. B2  15.8 ± 5.9 µM
2. B1  20.2 ± 1.4 µM
3. B5  22.2 ± 3.6 µM
4. B7  26.9 ± 0.4 µM
5. B4  43.8 ± 8.1 µM
6. B3  219 ± 23 µM
7. B6  296 ± 12 µM

In order of falling Vmax:
1. B3  717 µmol/min/mg
2. B4  402 µmol/min/mg
3. B7  372 µmol/min/mg
4. B6  112 µmol/min/mg
5. B2  69 µmol/min/mg
6. B1  53.5 µmol/min/mg
7. B5  22.2 µmol/min/mg

In order of falling kcat:
1. B3  369 s⁻¹
2. B4  237 s⁻¹
3. B7  161 s⁻¹
4. B6  68.7 s⁻¹
5. B1  32.7 s⁻¹
6. B2  31.1 s⁻¹
7. B5  13.6 s⁻¹

In order of falling kcat/Km:
1. B7  5.95e+06 M⁻¹ s⁻¹
2. B4  5.81e+06 M⁻¹ s⁻¹
3. B2  1.99e+06 M⁻¹ s⁻¹
4. B3  1.75e+06 M⁻¹ s⁻¹
5. B1  1.63e+06 M⁻¹ s⁻¹
6. B5  628000 M⁻¹ s⁻¹
7. B6  232000 M⁻¹ s⁻¹

biological target: T1, bovine succinate dehydrogenase (SDH) (Bos taurus, UniProt P31039); experiment: DCIP reduction at […] nm; assay type: biochemical; details: 2 mM malate, 0.1 mM decylubiquinone, GOT and glutamate, pH 7.1, 22 °C; product enol-OAA
T1 construct: gene SDHA; native complex II, dodecyl-maltoside-solubilized and enriched from bovine heart submitochondrial particles; with Succinate dehydrogenase [ubiquinone] iron-sulfur subunit, mitochondrial; Succinate dehydrogenase cytochrome b560 subunit, mitochondrial; Succinate dehydrogenase [ubiquinone] cytochrome b small subunit, mitochondrial
T1 sequence (P31039 44-665): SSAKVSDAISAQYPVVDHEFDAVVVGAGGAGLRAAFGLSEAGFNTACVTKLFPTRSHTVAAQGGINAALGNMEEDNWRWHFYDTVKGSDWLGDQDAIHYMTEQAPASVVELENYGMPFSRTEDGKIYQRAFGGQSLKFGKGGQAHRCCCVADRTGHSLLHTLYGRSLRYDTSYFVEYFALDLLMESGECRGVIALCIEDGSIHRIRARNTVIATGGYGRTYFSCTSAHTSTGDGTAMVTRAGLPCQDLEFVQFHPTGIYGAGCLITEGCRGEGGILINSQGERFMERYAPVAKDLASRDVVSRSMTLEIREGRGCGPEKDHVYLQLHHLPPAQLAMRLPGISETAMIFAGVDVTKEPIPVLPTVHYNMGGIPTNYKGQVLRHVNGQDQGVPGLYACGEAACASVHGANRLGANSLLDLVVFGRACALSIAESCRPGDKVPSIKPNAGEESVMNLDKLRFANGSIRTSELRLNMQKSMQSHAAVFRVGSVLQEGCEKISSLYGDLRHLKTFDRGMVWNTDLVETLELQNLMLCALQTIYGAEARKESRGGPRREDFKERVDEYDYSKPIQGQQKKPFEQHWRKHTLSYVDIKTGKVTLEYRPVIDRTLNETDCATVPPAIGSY
T1 sequence (Q3T189 29-280 partner): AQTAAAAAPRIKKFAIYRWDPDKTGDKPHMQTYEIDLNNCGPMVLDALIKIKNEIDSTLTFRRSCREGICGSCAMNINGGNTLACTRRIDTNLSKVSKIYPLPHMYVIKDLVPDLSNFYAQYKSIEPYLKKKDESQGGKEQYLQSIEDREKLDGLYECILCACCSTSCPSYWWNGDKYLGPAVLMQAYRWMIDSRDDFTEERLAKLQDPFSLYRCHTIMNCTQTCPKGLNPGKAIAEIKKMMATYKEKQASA
T1 sequence (P35720 30-169 partner): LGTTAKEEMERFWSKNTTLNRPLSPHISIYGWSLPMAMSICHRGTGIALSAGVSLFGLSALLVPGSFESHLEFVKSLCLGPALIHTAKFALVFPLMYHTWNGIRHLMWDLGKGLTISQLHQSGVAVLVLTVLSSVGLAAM
T1 sequence (Q95123 56-158 partner): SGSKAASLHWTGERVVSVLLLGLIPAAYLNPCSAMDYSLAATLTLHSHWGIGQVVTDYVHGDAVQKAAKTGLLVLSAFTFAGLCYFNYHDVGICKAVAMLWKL

For `O=C(O)C[C@H](O)C(=O)O` [malate], the “DCIP reduction at 600 nm” value was “These results confirm that malate oxidation by SDH forms enol-OAA”.
